Data reported in PMC7857400.

Biological target: SARS-CoV-2 spike protein receptor binding domain (RBD) (SARS-CoV-2) (UniProt P0DTC2)

Substance | IC50 of neutralisation, pseudovirus luciferase assay
homotrimeric Nb21 (Nb21_(3)) | 1.3 pM
homotrimeric Nb20 (Nb20_(3)) | 4.1 pM
